Test results reported in patent publication EP1426444A2 (Technion Research & Development Co., Ltd., dated 2004).

Biological target: T1, KDR/flk-1 VEGF receptor of HUVEC cells (human, UniProt P35968 20-1356)
T1 construct: whole, on cells; Endogenous receptor on confluent HUVEC cells; also called the larger VEGF receptor of HUVEC cells
Experiment: overview table, row 'Binding to Flk-1 and Flt-1 receptors'

T1 sequence (P35968 20-1356): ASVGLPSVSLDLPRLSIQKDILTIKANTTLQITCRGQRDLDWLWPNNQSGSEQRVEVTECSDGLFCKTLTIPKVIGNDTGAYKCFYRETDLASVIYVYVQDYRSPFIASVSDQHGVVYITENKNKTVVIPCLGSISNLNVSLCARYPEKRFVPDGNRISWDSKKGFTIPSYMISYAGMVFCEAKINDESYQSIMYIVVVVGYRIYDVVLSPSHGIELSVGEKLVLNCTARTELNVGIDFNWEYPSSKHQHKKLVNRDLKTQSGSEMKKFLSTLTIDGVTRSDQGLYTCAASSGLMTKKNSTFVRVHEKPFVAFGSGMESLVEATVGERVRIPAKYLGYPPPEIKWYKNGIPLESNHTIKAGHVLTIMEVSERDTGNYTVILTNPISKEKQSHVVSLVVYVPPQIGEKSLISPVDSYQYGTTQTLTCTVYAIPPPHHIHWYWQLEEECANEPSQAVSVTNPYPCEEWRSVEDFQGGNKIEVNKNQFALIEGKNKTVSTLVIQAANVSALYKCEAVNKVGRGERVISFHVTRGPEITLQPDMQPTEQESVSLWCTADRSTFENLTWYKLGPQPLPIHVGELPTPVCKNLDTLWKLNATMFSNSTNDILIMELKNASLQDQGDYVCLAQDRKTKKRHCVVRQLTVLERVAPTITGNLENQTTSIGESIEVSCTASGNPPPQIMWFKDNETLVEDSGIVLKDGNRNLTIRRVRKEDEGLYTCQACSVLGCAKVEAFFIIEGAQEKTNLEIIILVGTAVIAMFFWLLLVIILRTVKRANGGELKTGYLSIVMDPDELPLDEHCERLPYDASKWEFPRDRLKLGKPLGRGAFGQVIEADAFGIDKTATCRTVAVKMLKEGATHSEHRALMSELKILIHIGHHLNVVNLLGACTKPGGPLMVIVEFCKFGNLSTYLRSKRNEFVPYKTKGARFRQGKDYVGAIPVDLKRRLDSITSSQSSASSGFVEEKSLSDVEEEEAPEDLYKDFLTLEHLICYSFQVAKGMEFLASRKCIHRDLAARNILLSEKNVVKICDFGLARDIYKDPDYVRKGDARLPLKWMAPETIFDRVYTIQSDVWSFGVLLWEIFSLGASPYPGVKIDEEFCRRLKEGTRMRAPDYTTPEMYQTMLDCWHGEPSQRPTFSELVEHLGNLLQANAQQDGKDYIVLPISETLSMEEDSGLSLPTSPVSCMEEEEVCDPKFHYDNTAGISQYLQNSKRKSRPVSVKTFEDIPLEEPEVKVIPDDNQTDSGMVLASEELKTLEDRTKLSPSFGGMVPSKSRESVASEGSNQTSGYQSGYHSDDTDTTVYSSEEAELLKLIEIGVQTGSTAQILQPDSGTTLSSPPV

B1: VEGF145 (recombinant, produced in Sf9 insect cells by baculovirus) (ligand)
chain: APMAEGGGQNHHEVVKFMDVYQRSYCHPIETLVDIFQEYPDEIEYIFKPSCVPLMRCGGCCNDEGLECVPTEESNITMQIMRIKPHQGQHIGEMSFLQHNKCECRPKKDRARQEKKSVRGKGKGQKRKRKKSRYKSWSVCDKPRR
notes: partially purified on heparin-sepharose; also called VEGF exons 1-5, 6a, 8
B1: binds.

B2: VEGF121 (ligand, human, UniProt P15692-9 27-147, looked up)
chain: APMAEGGGQNHHEVVKFMDVYQRSYCHPIETLVDIFQEYPDEIEYIFKPSCVPLMRCGGCCNDEGLECVPTEESNITMQIMRIKPHQGQHIGEMSFLQHNKCECRPKKDRARQEKCDKPRR
notes: mature
B2: binds.
